Experimental data as given in PMC3439491, “Characterization of an AGAMOUS-like MADS Box Protein, a Probable Constituent of Flowering and Fruit Ripening Regulatory System in Banana”.

Tests used:
MA-MADS5 full length (A) [1] = molecular target: T1, MA-MADS5 full length (A) (Musa acuminata (AAA group, Cavendish …, UniProt E9NW24 1-243)); test: EMSA; EMSA with 2 ug recombinant protein or 15 ug nuclear extract, buffer by reference to earlier work; circularization pre-incubation: 60 mM KCl, 8 mM HEPES pH 7.9; settings: protein: recombinant, tags: 6xHis (pQE30), chain copies: 2, blunt
T1 sequence (E9NW24 entry or part of it): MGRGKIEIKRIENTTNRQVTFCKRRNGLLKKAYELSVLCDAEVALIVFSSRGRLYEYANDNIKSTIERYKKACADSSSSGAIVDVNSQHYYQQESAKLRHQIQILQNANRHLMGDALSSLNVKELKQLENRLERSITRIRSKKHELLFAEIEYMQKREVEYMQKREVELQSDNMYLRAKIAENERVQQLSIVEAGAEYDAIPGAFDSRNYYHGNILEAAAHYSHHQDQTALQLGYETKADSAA

MA-MADS5 full length (A) [2] = molecular target: T1, MA-MADS5 full length (A); test: EMSA; supershifted by anti-MA-MADS5; EMSA with 2 ug recombinant protein or 15 ug nuclear extract, buffer by reference to earlier work; circularization pre-incubation: 60 mM KCl, 8 mM HEPES pH 7.9; settings: protein: recombinant; tags: 6xHis (pQE30); chain copies: 2; label: 32P 5' end; blunt
MA-MADS5 G (C-terminal) = MA-MADS5 G (C-terminal) (Musa acuminata (AAA group, Cavendish …, UniProt E9NW24 184-243)); test: EMSA; EMSA with 2 ug recombinant protein or 15 ug nuclear extract, buffer by reference to earlier work; circularization pre-incubation: 60 mM KCl, 8 mM HEPES pH 7.9; settings: protein: recombinant; tags: 6xHis (pQE30); label: 32P; blunt
Chain of MA-MADS5 G (C-terminal) (Musa acuminata (E9NW24 entry or part of it): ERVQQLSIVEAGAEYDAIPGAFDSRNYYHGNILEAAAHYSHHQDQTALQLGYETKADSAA

MA-MADS5 D (MADS+I+K) = MA-MADS5 D (MADS+I+K) (Musa acuminata (AAA group, Cavendish …, UniProt E9NW24 1-183)); test: as above; settings: protein: recombinant; tags: 6xHis (pQE30); chain copies: 2; label: 32P; blunt
Chain of MA-MADS5 D (MADS+I+K) (Musa acuminata (E9NW24 entry or part of it): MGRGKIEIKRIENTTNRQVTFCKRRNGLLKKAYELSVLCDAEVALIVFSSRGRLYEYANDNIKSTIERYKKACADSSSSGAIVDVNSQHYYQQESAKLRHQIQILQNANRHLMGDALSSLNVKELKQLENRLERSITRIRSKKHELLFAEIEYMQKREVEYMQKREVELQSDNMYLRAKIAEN

MA-MADS5 C (MADS+I) = MA-MADS5 C (MADS+I) (Musa acuminata (AAA group, Cavendish …, UniProt E9NW24 1-73)); test: as above; settings: protein: recombinant; tags: 6xHis (pQE30); chain copies: 2; label: 32P; blunt
Chain of MA-MADS5 C (MADS+I) (Musa acuminata (E9NW24 entry or part of it): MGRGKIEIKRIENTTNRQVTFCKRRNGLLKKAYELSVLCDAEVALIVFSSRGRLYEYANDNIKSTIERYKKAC

MA-MADS5 F (K+C) = MA-MADS5 F (K+C) (Musa acuminata (AAA group, Cavendish …, UniProt E9NW24 74-243)); test: as above; settings: protein: recombinant; tags: 6xHis (pQE30); label: 32P; blunt
Chain of MA-MADS5 F (K+C) (Musa acuminata (E9NW24 entry or part of it): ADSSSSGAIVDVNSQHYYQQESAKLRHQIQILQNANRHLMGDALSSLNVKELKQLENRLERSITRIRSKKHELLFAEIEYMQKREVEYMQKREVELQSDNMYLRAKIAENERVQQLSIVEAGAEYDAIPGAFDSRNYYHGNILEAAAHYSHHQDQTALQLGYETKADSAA

MA-MADS5 E (I+K+C) = MA-MADS5 E (I+K+C) (Musa acuminata (AAA group, Cavendish …, UniProt E9NW24 61-243)); test: as above; settings: protein: recombinant; tags: 6xHis (pQE30); chain copies: 2; label: 32P; blunt
Chain of MA-MADS5 E (I+K+C) (Musa acuminata (E9NW24 entry or part of it): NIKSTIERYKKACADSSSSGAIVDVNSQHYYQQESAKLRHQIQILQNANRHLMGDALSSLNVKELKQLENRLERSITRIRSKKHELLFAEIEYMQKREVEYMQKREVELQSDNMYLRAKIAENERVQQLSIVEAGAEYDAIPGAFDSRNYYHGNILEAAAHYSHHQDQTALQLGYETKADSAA

[3] = molecular target: MA-MADS5 full length (A);MA-MADS5 C (MADS+I) (Musa acuminata (AAA group, Cavendish …, UniProt E9NW24;E9NW24 1-243;1-73, |)); test: EMSA; intermediate-mobility dimer; EMSA with 2 ug recombinant protein or 15 ug nuclear extract, buffer by reference to earlier work; circularization pre-incubation: 60 mM KCl, 8 mM HEPES pH 7.9; settings: protein: recombinant;recombinant; tags: 6xHis (pQE30);6xHis (pQE30); copies: 1;1; label: 32P; blunt
[4] = molecular target: MA-MADS5 C (MADS+I);MA-MADS5 D (MADS+I+K) (Musa acuminata (AAA group, Cavendish …, UniProt E9NW24;E9NW24 1-73;1-183, |)); test: as above; settings: protein: recombinant;recombinant; tags: 6xHis (pQE30);6xHis (pQE30); copies: 1;1; label: 32P; blunt
[5] = molecular target: MA-MADS5 full length (A);MA-MADS5 D (MADS+I+K) (Musa acuminata (AAA group, Cavendish …, UniProt E9NW24;E9NW24 1-243;1-183, |)); test: as above; settings: protein: recombinant;recombinant; tags: 6xHis (pQE30);6xHis (pQE30); copies: 1;1; label: 32P; blunt

B1: CArG motif 3 (MA-ACS1) (dsDNA)
DNA 1: GGGTCAACTATAATTGCCTTCC
DNA 2: GGAAGGCAATTATAGTTGACCC
binding result (MA-MADS5 full length (A) [1]; label: 32P 5' end): no binding

B2: CArG motif 2 (MA-ACS1) (dsDNA)
DNA 1: ACACCCCATAAATTTGATCTTC
DNA 2: GAAGATCAAATTTATGGGGTGT
binding result (MA-MADS5 full length (A) [1]; label: 32P 5' end): binds

B3: CArG motif 9 (MA-LEC) (dsDNA)
DNA 1: ATAAATTCTTAAAAGATCCTAG
DNA 2: CTAGGATCTTTTAAGAATTTAT
binding result (MA-MADS5 full length (A) [1]; label: 32P 5' end): no binding

B4: CArG motif 8 (MA-LEC) (dsDNA)
DNA 1: CTGGTATCTATTTATGAAATCT
DNA 2: AGATTTCATAAATAGATACCAG
binding result (MA-MADS5 full length (A) [1]; label: 32P 5' end): binds

B5: CArG motif 4 (MA-ACS1) (dsDNA)
DNA 1: GATCATGCTTTTATTGTTTCTT
DNA 2: AAGAAACAATAAAAGCATGATC
binding result (MA-MADS5 full length (A) [1]; label: 32P 5' end): no binding

B6: CArG motif 1 (MA-SPS) (dsDNA)
DNA 1: TTGGATTCTTATATGTCACGAA
DNA 2: TTCGTGACATATAAGAATCCAA
binding result (MA-MADS5 full length (A) [2]): binds

B7: CArG motif 7 (MA-EXP) (dsDNA)
DNA 1: AAGCACGCATATTTGTGCTGCA
DNA 2: TGCAGCACAAATATGCGTGCTT
binding result (MA-MADS5 full length (A) [1]; label: 32P 5' end): binds

B8: CArG motif 5 (MA-ACO1) (dsDNA)
DNA 1: GAGGTTGGCAATTTGTCACTAC
DNA 2: GTAGTGACAAATTGCCAACCTC
binding result (MA-MADS5 full length (A) [1]; label: 32P 5' end): binds

B9: AGAMOUS element 1 CArG-box (A probe) (dsDNA)
DNA 1: ACTGAAGCTTTCCATTAATGGGAATGACGCACAATCCCAC
DNA 2: GTGGGATTGTGCGTCATTCCCATTAATGGAAAGCTTCAGT
binding result (MA-MADS5 full length (A) [1]; label: 32P): binds
binding result (MA-MADS5 G (C-terminal)): no binding
binding result (MA-MADS5 D (MADS+I+K)): binds
binding result (MA-MADS5 C (MADS+I)): binds
binding result (MA-MADS5 F (K+C)): no binding
binding result (MA-MADS5 E (I+K+C)): no binding
binding result [3]: binds
binding result [4]: binds
binding result [5]: binds

B10: AGAMOUS element m1 (Am probe, CArGm) (dsDNA)
DNA 1: ACTGAAGCTTTCCATGCATGGGAATGACGCACAATCCCAC
DNA 2: GTGGGATTGTGCGTCATTCCCATGCATGGAAAGCTTCAGT
binding result (MA-MADS5 full length (A) [1]; label: 32P or unlabeled): no binding

B11: CArG motif 6 (MA-ACO1) (dsDNA)
DNA 1: GAACGCCTATAAATTGCCTGGT
DNA 2: ACCAGGCAATTTATAGGCGTTC
binding result (MA-MADS5 full length (A) [1]; label: 32P 5' end): no binding
